Drawing on the RNAGym collection of RNA variant scans (doi:10.7554/elife.90254), this text covers self-cleavage for 39 variants.

Sequences and labels used below:
B1: LINE1-full (parent)
chain: UACGUAGGUGGUUUUCCCCUGAUAGUGCUAAGGGGGCCUGGAAGUUUGGACUGGGCAGAGCUCAACACAGCGUGGCAAAGUGGCUGUGGCUAGACUGCCUCUCUGGAUUCCUCGUCACUCAGCAGGGCAUCUCUGAGAGAAAUGCC

The variants in the data set derive from B1. Briefly: self-cleavage, relative activity (ratio to wild type); higher = more cleavage; in vitro, sequencing; the parent is a self-cleaving ribozyme.
With UACGUAGGAGGUUUUCCCCUGAUAGUGCUAAGGGGGCCUGGAAGUUUGGACUGGGCAGAGCUCAACACAGCGUGGCAAAGCGGCUGUGGCUAGACUGCCUCUCUGGAUUCCUCGUCACUCAGCAGGGCAUCUCUGAGAGAAAUGCC, the self-cleavage amounted to 1.1.

For UACGUAGGAGGUUUUCCCCUGAUAGUGCUAAGGGGGCCUGGAAGUUUGGACUGGGCAGAGCUCAACACAGCGUGGCAAAGUGGCUGUGGCUAGACUGCCCCUCUGGAUUCCUCGUCACUCAGCAGGGCAUCUCUGAGAGAAAUGCC, the self-cleavage was found to be 1.18. With UACGUAGGAGGUUUUCCCCUGAUAGUGCUAAGGGGGCCAGGAAGUUUGGACUGGGCAGAGCUCAACACAGCGUGGCAAAGUGGCUGUGGCUAGACUGCCUCUCUGGAUUCCUCGUCACUCAGCAGGGCAUCUCUGAGAGAAAUGCC, the self-cleavage was 1.16.

With UACGUAGGAGGUUUUCCCCUGAUAGUGCUAAGGGGGCCCGGAAGUUUGGACUGGGCAGAGCUCAACACAGCGUGGCAAAGUGGCUGUGGCUAGACUGCCUCUCUGGAUUCCUCGUCACUCAGCAGGGCAUCUCUGAGAGAAAUGCC, the self-cleavage amounted to 0.25.

In the case of UACGUAGGCGGUUUUCCCCUGAUAGUGCUAAGGGGGCCUGGAGGUUUGGACUGGGCAGAGCUCAACACAGCGUGGCAAAGUGGCUGUGGCUAGACUGCCUCUCUGGAUUCCUCGUCACUCAGCAGGGCAUCUCUGAGAGAAAUGCC, the self-cleavage was 1.12. For the variant UACGUAGGAGGUUUUCCCCUGAUAGUGCUAAGGGGGCCUGGAAGUUUGGACUGGGCAGAGCUCAACACAGCGUGGCAAAGUGGCUGUGGCUAGACUGCCUCCCUGGAUUCCUCGUCACUCAGCAGGGCAUCUCUGAGAGAAAUGCC, the self-cleavage stood at 1.03. Take UACGUAGGAGGUUUUCCCCUGAUAGUGCUAAGGGGGCCUGGAAGUUUGGACUGGGCAGAGCUCAACACAGCGUGGCAAAGUGGCUGUGGCUAGACUGCCUCUCCGGAUUCCUCGUCACUCAGCAGGGCAUCUCUGAGAGAAAUGCC: the self-cleavage was 1.17. On to UACGUAGGAGGUUUUCCCCUGAUAGUGCUAAGGGGGCCUGGAAGUUUGGACUGGGCAGAGCUCAACACAGCGUGGCAAAGUGGCUGUGGCUAGACUGCCUCUCUGGAUUCCCCGUCACUCAGCAGGGCAUCUCUGAGAGAAAUGCC, for which the self-cleavage was determined as 1.32. As to UACGUAGGAGGUUUUCCCCUGAUAGUGCUAAGGGGGCCUGGAAGUUUGGACUGGGCAGAGCUCAACACAGCGUGGCAAAGUGGCUGUGGCUAGACUGCCUCUCUGGAUUCCACGUCACUCAGCAGGGCAUCUCUGAGAGAAAUGCC, the self-cleavage was 0.82. To UACGUAGGCGGUUUUCCCCUGAUAGUGCUAAGGGGGCCUGGAAGUUUGGACUGGGCAGAGCUCAUCACAGCGUGGCAAAGUGGCUGUGGCUAGACUGCCUCUCUGGAUUCCUCGUCACUCAGCAGGGCAUCUCUGAGAGAAAUGCC belongs 0.32; to UACGUAGGAGGUUUUCCCCUGAUAGUGCUAAGGGGGCCUGGAAGUUUGGACUGGGCAGAGCUCAACACAGCGUGGCAAAGUGGCUGUGGCUAGACUGCCUCUCUGGAUUCCUCGCCACUCAGCAGGGCAUCUCUGAGAGAAAUGCC, 1.55; to UACGUAGGCGGUUUUCCCCUGUUAGUGCUAAGGGGGCCUGGAAGUUUGGACUGGGCAGAGCUCAACACAGCGUGGCAAAGUGGCUGUGGCUAGACUGCCUCUCUGGAUUCCUCGUCACUCAGCAGGGCAUCUCUGAGAGAAAUGCC, 0.89. For UACGUAGGAGGUUUUCCCCUGAUAGUGCUAAGGGGGCCUGGAAGUUUGGACUGGGCAGAGCUCAACACAGCGGGGCAAAGUGGCUGUGGCUAGACUGCCUCUCUGGAUUCCUCGUCACUCAGCAGGGCAUCUCUGAGAGAAAUGCC, the self-cleavage amounted to 1.29. For the variant UACGUAGGCGGUUUUCCCCUGAUAGUGCUAAGGGGGCCUGGAAGUUUGGACUGGGCAGAGCUCGACACAGCGUGGCAAAGUGGCUGUGGCUAGACUGCCUCUCUGGAUUCCUCGUCACUCAGCAGGGCAUCUCUGAGAGAAAUGCC, the self-cleavage was 0.45. To UACGUAGGAGGUUUUCCCCUGAUAGUGCUAAGGGGGCCUGGAAGUUUGGACUGGGCAGAGCUCAACACAGCGUGGCAAAGUGGCUGGGGCUAGACUGCCUCUCUGGAUUCCUCGUCACUCAGCAGGGCAUCUCUGAGAGAAAUGCC belongs 0.23; to UACGUAGGCGGUUUUCCCCUGAUAGUGCUAAGGGGGCCUGGAAGUUUGGCCUGGGCAGAGCUCAACACAGCGUGGCAAAGUGGCUGUGGCUAGACUGCCUCUCUGGAUUCCUCGUCACUCAGCAGGGCAUCUCUGAGAGAAAUGCC, 1.25. With UACGUAGGCGGUUUUCCCCUGAUAGUGCUAAGGGGGCCUGGAAGUUUGGACUGGGCGGAGCUCAACACAGCGUGGCAAAGUGGCUGUGGCUAGACUGCCUCUCUGGAUUCCUCGUCACUCAGCAGGGCAUCUCUGAGAGAAAUGCC the figure was 0.96; with UACGUAGGCGGUUUUCCCCUGAUAGUGCUAAGGGGGCCUGGGAGUUUGGACUGGGCAGAGCUCAACACAGCGUGGCAAAGUGGCUGUGGCUAGACUGCCUCUCUGGAUUCCUCGUCACUCAGCAGGGCAUCUCUGAGAGAAAUGCC, 1.32. For the variant UACGUAGGAGGUUUUCCCCUGAUAGUGCUAAGGGGGCCUGGAAGUCUGGACUGGGCAGAGCUCAACACAGCGUGGCAAAGUGGCUGUGGCUAGACUGCCUCUCUGGAUUCCUCGUCACUCAGCAGGGCAUCUCUGAGAGAAAUGCC, the self-cleavage turned out to be 0.98.

As to UACGUAGGAGGUUUUCCCCUGAUAGUGCUAAGGGGGCCUGGAAGUUCGGACUGGGCAGAGCUCAACACAGCGUGGCAAAGUGGCUGUGGCUAGACUGCCUCUCUGGAUUCCUCGUCACUCAGCAGGGCAUCUCUGAGAGAAAUGCC, the self-cleavage amounted to 1.37.

On to UACGUAGGCGGUUUUCCCCUGAUAGUGCUAAGGGGGCCUGGAAGUUUGGACUGGGCAGAGCUCAACUCAGCGUGGCAAAGUGGCUGUGGCUAGACUGCCUCUCUGGAUUCCUCGUCACUCAGCAGGGCAUCUCUGAGAGAAAUGCC, for which the self-cleavage stood at 0.26. For UACGUAGGCGGUUUUCCCCUGAUAGUGCUAAGGGGGCCUGGAAGUUUGGACUGGGCAGAGCUCAACGCAGCGUGGCAAAGUGGCUGUGGCUAGACUGCCUCUCUGGAUUCCUCGUCACUCAGCAGGGCAUCUCUGAGAGAAAUGCC, the self-cleavage was 0.48.

Turning to UACGUAGGAGGUUUUCCCCUGAUAGUGCUAAGGGGGCCUGGAAGUUUGGACUGGGCAGAGCUCAACACAGCGUGGCAAAGUGGCUGUGGCUAGACUGCCUCUCUGGAUCCCUCGUCACUCAGCAGGGCAUCUCUGAGAGAAAUGCC, the self-cleavage was found to be 1.34. For the variant UACGUAGGAGGUUUUCCCCUGAUAGUGCUAAGGGGGCCUGGAAGUUUGGACUGGGCAGAGCUCAACACAGCGUGGCAAAGUGGCUGUGGCUAGACUGCCUCUCUGGAUUCCUCGUCACUCAGCAGGGCAUCUCCGAGAGAAAUGCC, the self-cleavage worked out at 1.4. Turning to UACGUAGGAGGUUUUCCCCUGAUAGUGCUAAGGGGGCCUGGAAGUUUGGACUGGGCAGAGCACAACACAGCGUGGCAAAGUGGCUGUGGCUAGACUGCCUCUCUGGAUUCCUCGUCACUCAGCAGGGCAUCUCUGAGAGAAAUGCC, the self-cleavage is 0.12. With UACGUAGGAGGUUUUCCCCUGAUAGUGCUAAGGGGGCCUGGAAGUUUGGACUGGGCAGAGCUCAACACAGCGUGGCAAAGUGGCUGUGGCUAGACUGCCUCUCUGGAUUCCUCGUCACUCAGCAGGGCAUCUCUGAGAGAAAAGCC, the self-cleavage was determined as 1.34. For UACGUAGGAGGUUUUCCCCUGAUAGUGCUAAGGGGGCCUGGAAGUUUGGACUGGGCAGAGCUCAACACAGCGUGGCAAAGUGGCUGUGGCUAGACUGCCUCUCUGGAUUCCUCGUCACUCAGCAGGGCAUCUCUGAGAGAAACGCC, the self-cleavage stood at 0.94. For UACGUAGGAGGUUUUCCCCUGAUAGUGCUAAGGGGGCCUGGAAGUUUGGACUGGGCAGAGCUCAACACAGCGUGGCAAAGUGGCUGUGGCUAGACUGCCUCUCUGGAUUCCUCGUCACUCAGCAGGGCAUCUCUGAGAGAAAGGCC, the self-cleavage is 1.98.

As to UACGUAGGAGGUUUUCCCCUGAUAGUGCUAAGGGGGCCUGGAAGCUUGGACUGGGCAGAGCUCAACACAGCGUGGCAAAGUGGCUGUGGCUAGACUGCCUCUCUGGAUUCCUCGUCACUCAGCAGGGCAUCUCUGAGAGAAAUGCC, the self-cleavage is 0.91.

For the variant UACGUAGGAGGUUUUCCCCUGAUAGUGCUAAGGGGGCCUGGAAGUUUGGACUGGGCAGAGCUCAACACAGCGUGGCAAAGUGGCUGUGGCUAGACUGCCUCUCUGGAUUCCUCGUCACUCAGCAGGGCAUCCCUGAGAGAAAUGCC, the self-cleavage was 1.04. For UACGUAGGCGGUUUUCCCCUGAUAGUGCUAAGGGGGCCUGGAAGUUUGGACUGGGCAGUGCUCAACACAGCGUGGCAAAGUGGCUGUGGCUAGACUGCCUCUCUGGAUUCCUCGUCACUCAGCAGGGCAUCUCUGAGAGAAAUGCC, the self-cleavage came out at 0.72. As to UACGUAGGAGGUUUUCCCCUGAUAGUGCUAAGGGGGCCUGGAAGUUUGGACUGGGCAGAGCUCAACACAGCGUGGCAAAGUGGCCGUGGCUAGACUGCCUCUCUGGAUUCCUCGUCACUCAGCAGGGCAUCUCUGAGAGAAAUGCC, the self-cleavage worked out at 0.54.

Take UACGUAGGAGGUUUUCCCCUGAUAGUGCUAAGGGGGCCUGGAAGUUUGGACUGGGCAGAGCUCAACACAGCGUGGCAAAGUGGCAGUGGCUAGACUGCCUCUCUGGAUUCCUCGUCACUCAGCAGGGCAUCUCUGAGAGAAAUGCC: the self-cleavage was 0.09.

For the variant UACGUAGGAGGUUUUCCCCUGAUAGAGCUAAGGGGGCCUGGAAGUUUGGACUGGGCAGAGCUCAACACAGCGUGGCAAAGUGGCUGUGGCUAGACUGCCUCUCUGGAUUCCUCGUCACUCAGCAGGGCAUCUCUGAGAGAAAUGCC, the self-cleavage was determined as 0.7. For UACGUAGGAGGUUUUCCCCUGAUAGCGCUAAGGGGGCCUGGAAGUUUGGACUGGGCAGAGCUCAACACAGCGUGGCAAAGUGGCUGUGGCUAGACUGCCUCUCUGGAUUCCUCGUCACUCAGCAGGGCAUCUCUGAGAGAAAUGCC, the self-cleavage was 1.24.

With UACGUAGGAGGUUUUCCCCUGAUAGUGCUAAGGGGGCCUGGAAGUUUGGACUGGGCAGAGCUCAACACAGCGUGGCAAAGUGGCUGUGGCUAGACUGCCUCUCUGGACUCCUCGUCACUCAGCAGGGCAUCUCUGAGAGAAAUGCC, the self-cleavage was determined as 0.9. Consider UACGUAGGAGGUUUUCCCCUGAUAGUGCUAAGGGGGCCUGGAAGUUUGGACCGGGCAGAGCUCAACACAGCGUGGCAAAGUGGCUGUGGCUAGACUGCCUCUCUGGAUUCCUCGUCACUCAGCAGGGCAUCUCUGAGAGAAAUGCC, for which the self-cleavage came to 0.74.

For UACGUAGGAGGUUUUCCCCUGAUAGUGCUAAGGGGGCCUGGAAGUUUGGACAGGGCAGAGCUCAACACAGCGUGGCAAAGUGGCUGUGGCUAGACUGCCUCUCUGGAUUCCUCGUCACUCAGCAGGGCAUCUCUGAGAGAAAUGCC, the self-cleavage was 0.9. In the case of UACGUAGGAGGUUUUCCCCUGAUAGUGCUAAGGGGGCCUGGAAGUUUGGACUGGGCAGAGCUCAACACAGCGUGGCAAAGUGGCUGUGGCUAGACAGCCUCUCUGGAUUCCUCGUCACUCAGCAGGGCAUCUCUGAGAGAAAUGCC, the self-cleavage came to 0.08.
